Experimental findings from paper PMC3464217 (2012) are described below.

Test in all cases: SPR
In general terms: SPR reads the build-up and loss of mass on a sensor chip optically.

Experiment [1] concerns the target T1, recombinant gp160 (HIV (IIIB or MN/LAI)).
The target in experiment [2] is T1, recombinant gp160. This is another data set of the same source.
The target in experiment [3] is T1, recombinant gp160. This is another data set of the same source.

B1: 7B2 (antibody, V domains shown)
VH: QVQLVQSGGGVFKPGGSLRLSCEASGFTFTEYYMTWVRQAPGKGLEWLAYISKNGEYSKYSPSSNGRFTISRDNAKNSVFLQLDRLSADDTAVYYCARADGLTYFSELLQYIFDLWGQGARVTVSS
VL: DIVMTQSPDSLAVSPGERATIHCKSSQTLLYSSNNRHSIAWYQQRPGQPPKLLLYWASMRLSGVPDRFSGSGSGTDFTLTINNLQAEDVAIYYCHQYSSHPPTFGHGTRVELR
The term Kd denotes the constant that tells how readily two partners part at equilibrium. Broadly, the koff is a measure of how fast the partners let go of each other. Turning to B1, in experiment [1], the Ka is 3.4e+09 M⁻¹. The Kd in experiment [2] was 0.31 nM. Also, in experiment [3], the koff stood at 4.9e-05 s⁻¹.

B2: HY (antibody, V domains shown)
VH: QVQLEQSGAEVKKPGASVKVSCQASGYRFSHFTVHWVRQAPGQRFEWMGWINPYNGNKEFSAKFQDRVTFTADTSANTAYMELRSLRSADTAVYYCARVGEWGWDDSPYDNYYMDVWGKGTTVIVSS
VL: EIVLTQSPGTLSLSPGERATFSCRSSHSIRSRRVAWYQHKPGQAPRLVIHGVSNRASGISDRFSGSGSGTDFTLTITRVEPEDFALYYCQVYGASSYTFGQGTKLERK
Take B2: the Ka in experiment [1] turned out to be 2.7e+06 M⁻¹. The Kd in experiment [2] was found to be 370 nM. Besides, the koff in experiment [3] came to 0.018 s⁻¹.
